# Numbering of substitutions follows the chain as printed.
# B1: lib2-6-8 (lib1-6-8 in Table 4) (ssRNA)
# RNA: GGGGGAGAACGCGGAUCCAUAACCGGCUGCAUGGGAGGGACAUCCUGGGAAAGGACGGGUCGAGAUGACCUGAGCAGUUCCGGCAAGCUUCGCUCUAGAUCUCCCUUUAGUGAGGGUUA
# B2: lib2-6-1-81 (ssRNA)
# RNA: GGGGGAGAACGCGGAUCCUGUCUCCACCGCCGAUACUGGGGUUCCUGGGGCCCCUCCAUGCAGGAGGGGGGUGGUUCGGAG
# modifications: 2'-NH2 U, 2'-F C
# B3: lib1-20-3 (ssRNA)
# RNA: GGGGGAGAACGCGGAUCCUGCUAGACCGAGGAUGCAAAGGGACAUGCAUUAGGGAAACCUAUGUAUAAGAACGCGGUCGCAGAAGCUUCGCUCUAGAUCUCCCUUUAGUGAGGGUUA
# modifications: 2'-F pyrimidines
# B4: PDGF 2'-F clone 23 (ssRNA)
# RNA: GGGAGACAAGAAUAACGCUCAAUCGAUCGGUUGUGUGCCGGACAGCUUUGACCAUGAGCUGGGACCGAGGCCUUCGACAGGAGGCUCACAACAGGC
# modifications: 2'-F pyrimidines
# B5: lib5-5 (ssRNA)
# RNA: GGGGGAGAACGCGGAUCCGAGCAAUCCCAGGCGCAUAGCUUCCGAGUAGACAGGAGGGAGGGGUGGAUGUGGCGUCUCGAGGAAGCUUCGCUCUAGAUCUCCCUUUAGUGAGGGUUA
# modifications: 2'-NH2 pyrimidines
# B6: lib3-44 (ssRNA)
# RNA: GGGGGAGAACGCGGAUCCUGAGAAGGACGUCGGGGUGAGGUGCAGCAGAAAGGGCCGGCACCACAUGACGUAAAAGCUUCGCUCUAGAUCUCCCUUUAGUGAGGGUUA
# modifications: 2'-NH2 pyrimidines
# B7: PDGF 2'-F clone 16 (ssRNA)
# RNA: GGGAGACAAGAAUAACGCUCAACGAACGAGGAGGGAGUGGCAAGGGAUGGUUGGAUAGGCUCUACGCUCAUUCGACAGGAGGCUCACAACAGGC
# modifications: 2'-F pyrimidines
# B8: lib2-6-1 (ssRNA)
# RNA: GGGGGAGAACGCGGAUCCUGUCUCCACCGCCGAUACUGGGGUUCCUGGGGCCCCUCCAUGCAGGAGGGGGGUGGUUCGGAGAAAGCUUCGCUCUAGAUCUCCCUUUAGUGAGGGUUA
# modifications: 2'-NH2 U, 2'-F C
# B9: lib8-23 (ssRNA)
# RNA: B8 RNA with C53G
# modifications: 2'-NH2 U, 2'-F C
# B10: lib1-20-12 (ssRNA)
# RNA: GGGGGAGAACGCGGAUCCGGUCACCCGGGCAUAUAACAAUGCCGACACUGGGGUACCUGGGACGGGUGGGACUGGACGGAAGAAGCUUCGCUCUAGAUCUCCCUUUAGUGAGGGUUA
# B11: lib3-42 (ssRNA)
# RNA: GGGGGAGAACGCGGAUCCGGUGGGAAAGUCGGAUUAUGUGUGUAGAUUUGUGUGCGAAAGCUUCGCUCUAGAUCUCCCUUUAGUGAGGGUUA
# modifications: 2'-NH2 pyrimidines
# Legend:
# [1] = target: T1, TGFβ1 (Homo sapiens, UniProt P01137 P01137:279-390); assay: filter; 2'-OH RNA; printed lib1-6-8 in Table 4; settings: tags: Genentech; biotinylated version used in bead assay; chain copies: 2
# [2] = target: T1, TGFβ1; assay: filter; cell IC50 298 and 201 nM; settings: tags: Genentech; biotinylated version used in bead assay; chain copies: 2
# [3] = target: T1, TGFβ1; assay: filter; not inhibitory; no binding with 2'-NH2 pyrimidines; settings: tags: Genentech; biotinylated version used in bead assay; chain copies: 2
# [4] = target: T2, PDGF-AA (Homo sapiens, UniProt P04085 P04085:87-211); assay: filter; +/-12; PBSM, 37 C; comparable to random DNA; settings: tags: R&D Systems, E. coli, long form of A-chain; chain copies: 2 (inferred); label: 5'-32P; three-way helix junction
# Procedure: (§1) The fraction of ³²P 5′ nd-labeled DNA ligands bound to varying concentrations of PDGF was determined by the nitrocellulose filter binding method. Minimal ligands tested were 20t (o), 36t (Δ), and 41t (□). Oligonucleotide concentrations in these experiments were ≈10 pM (PDGF-AB and PDGF-BB) and ≈50 pM (PDGF AA). Data points were fitted to eq. 1 (for binding of the DNA ligands to PDGF-AA) or to eq. 2 (for binding to PDGF AB and BB) using the non-linear least squares method. Binding reactions were done at 37° C. in binding buffer (PBSM with 0.01% HSA).
# (§2) The binding of ssDNA ligands at low concentrations to varying concentrations of PDGF was determined by the nitrocellulose filter binding method as described (Green et al., (1995) Chemistry and Biology 2:683-695). The concentrations of PDGF stock solutions (in PBS) were determined from the absorbance readings at 280 nm using the following e₂₈₀ values calculated from the amino acid sequences (Gill, S.C. and von Hippel, P. H. (1989) Anal. Biochem. 182:319-326): 19,500 M⁻¹cm⁻¹ for PDGF-AA, 15,700 M⁻¹cm⁻¹ for PDGF-AB and 11,800 M⁻¹cm⁻¹ for PDGF-BB. ssDNA for all binding experiments were purified by electrophoresis on 8% (>80 nucleotides) or 12% (<40 nucleotides) polyacrylamide/7 M urea gels. […]
# [5] = target: T3, PDGF-AB (Homo sapiens, UniProt P04085;P01127 P04085:87-211,P01127:82-190); assay: filter; +/-0.011; high affinity component; PBSM, 37 C; settings: tags: R&D Systems, E. coli; label: 5'-32P; three-way helix junction
# Procedure: as §1
# (§3) The binding of ssDNA ligands at low concentrations to varying concentrations of PDGF was determined by the nitrocellulose filter binding method as described (Green et al., (1995) Chemistry and Biology 2:683-695). The concentrations of PDGF stock solutions (in PBS) were determined from the absorbance readings at 280 nm using the following e₂₈₀ values calculated from the amino acid sequences (Gill, S.C. and von Hippel, P. H. (1989) Anal. Biochem. 182:319-326): 19,500 M⁻¹cm⁻¹ for PDGF-AA, 15,700 M⁻¹cm⁻¹ for PDGF-AB and 11,800 M⁻¹cm⁻¹ for PDGF-BB. ssDNA for all binding experiments were purified by electrophoresis on 8% (>80 nucleotides) or 12% (<40 nucleotides) polyacrylamide/7 M urea gels. All ssDNA ligands were heated at 90° C. in binding buffer at high dilution (1 μM) for 2 min and cooled on ice prior to further dilution into the protein solution. The binding mixtures were typically incubated for 15 min at 37° C. before partitioning on nitrocellulose filters.
# (§4) ^aData points shown in FIG. 5A were fitted to eq 1 (Example 7). ^bData points in FIGS. 5B and 5C were fitted to eq. 2.
# [6] = target: T4, PDGF-BB (Homo sapiens, UniProt P01127 P01127:82-190); assay: filter; +/-0.009; high affinity component; PBSM, 37 C; settings: tags: R&D Systems, E. coli; chain copies: 2 (inferred); label: 5'-32P; three-way helix junction
# Procedure: as §1, §2
# [7] = target: T3, PDGF-AB; assay: filter; thrombin aptamer control; settings: tags: R&D Systems, E. coli; stem-loop
# Procedure: as §3
# [8] = target: T2, PDGF-AA; assay: filter; +/-4; PBSM, 0.01% HSA, 37 C; comparable to random DNA; settings: tags: R&D Systems, E. coli, long form of A-chain; chain copies: 2 (inferred); label: 5'-32P; three-way helix junction
# Procedure: as §1, §2
# [9] = target: T4, PDGF-BB; assay: filter; +/-0.031; high affinity component; PBSM, 37 C; settings: tags: R&D Systems, E. coli; chain copies: 2 (inferred); label: 5'-32P; three-way helix junction
# Procedure: as §1, §4
# [10] = target: T3, PDGF-AB; assay: filter; +/-38; high affinity component of biphasic binding; settings: tags: R&D Systems, E. coli
# Procedure: (§5) Briefly, the 2′-fluoro-2′-deoxypyrimidine RNA for affinity selections was prepared by in vitro transcription from synthetic DNA templates using T7 RNA polymerase (Milligan et al., Nucl. Acids Res. 15:8783 (1987)). The conditions for in vitro transcription described in detail previously (Jellinek et al., (1994) supra) were used, except that higher concentration (3 mM) of the 2′-fluoro-2′-deoxypyrimidine nucleoside triphosphates (2′-F-UTP and 2′-F-CTP) was used compared to ATP and GTP (1 mM). Affinity selections were done by incubating PDGF AB with 2′-fluoro-2′-deoxypyrimidine RNA for at least 15 min at 37° C. in PBS containing 0.01% human serum albumin. Partitioning of free RNA from protein-bound RNA was done by nitrocellulose filtration as described (Jellinek et al., (1993, 1994) supra). Reverse transcription of the affinity-selected RNA and amplification by PCR were done as described previously (Jellinek et al., (1994) supra). […] The affinity-enriched pool (round 19) was cloned and sequenced as described (Schneider et al., (1992) supra). The unique-sequence ligands were screened for their ability to bind PDGF AB with high affinity.
# [11] = target: T1, TGFβ1; assay: filter; 37 C; cell IC50 49 nM; settings: tags: Genentech; biotinylated version used in bead assay; chain copies: 2
# [12] = target: T1, TGFβ1; assay: cell_activity; settings: tags: Genentech or R&D Systems; chain copies: 2
# Procedure: MLEC-Pail/luc cells were plated at 3.2×10⁴ cells per well in a 96 well Falcon plate, in 100 μl of DME+10% fetal bovine serum overnight. Media was made from autoclaved water. The cells were washed three times ([…]) in serum free DME plus Solution A (1:1). Solution A is 30 mM Hepes pH 7.6, 10 mM glucose, 3.0 mM KCl, 131 mM NaCl, 1.0 mM disodium phosphate. Samples (100 μl) were added in DME containing 20 mM Hepes pH 7.5, and 0.1% BSA (Fluka, radioimmunoassay grade). All samples were in triplicate. After six hours at 37° C. in a 5% CO₂ incubator the media was removed and cells were washed three times (100 μl each) in cold PBS. Lysis buffer (75 μl) (Analytical Luminescence Laboratory) was added and the plates incubated on ice for 20 min. The plates were sealed and frozen at −80° C. until assayed. Samples (25 μl) were assayed for luciferase activity with the Enhanced Luciferase Assay Kit from Analytical Luminescence Laboratory (San Diego, Calif., USA) according to the manufacturer's instructions using the Berthold Microlumat LB96P luminometer.
# Ligands tested for inhibition of TGFβ1 activity were tested at a minimum of five concentrations. The ligands were serially diluted in DME, 20 mM Hepes pH 7.5, 0.1% Fluka BSA in polypropylene tubes and an equal volume of media containing 12 pM TGFβ1 was added to each tube, vortexed and transferred to the cells without further incubation.
# [13] = target: T1, TGFβ1; assay: filter; cell IC50 119 nM; settings: tags: Genentech; biotinylated version used in bead assay; chain copies: 2
# [14] = target: T3, PDGF-AB; assay: filter; +/-34; high affinity component of biphasic binding; settings: tags: R&D Systems, E. coli
# Procedure: as §5
# [15] = target: T2, PDGF-AA; assay: filter; +/-8; PBSM, 37 C; comparable to random DNA; settings: tags: R&D Systems, E. coli, long form of A-chain; chain copies: 2 (inferred); label: 5'-32P; three-way helix junction
# Procedure: as §1, §2
# [16] = target: T4, PDGF-BB; assay: filter; +/-0.011; high affinity component; PBSM, 37 C; settings: tags: R&D Systems, E. coli; chain copies: 2 (inferred); label: 5'-32P; three-way helix junction
# Procedure: as §1, §3, §4
# [17] = target: T3, PDGF-AB; assay: filter; +/-0.009; high affinity component; PBSM, 37 C; settings: tags: R&D Systems, E. coli; label: 5'-32P; three-way helix junction
# Procedure: as §1, §2
# [18] = target: T1, TGFβ1; assay: filter; cell IC50 103 and 112 nM; fully effective only against TGFβ1, not TGFβ2 or TGFβ3; settings: tags: Genentech; biotinylated version used in bead assay; chain copies: 2
# [19] = target: T1, TGFβ1; assay: filter; C to G at position 53; not inhibitory; settings: tags: Genentech; biotinylated version used in bead assay; chain copies: 2
# [20] = target: T1, TGFβ1; assay: filter; 2'-OH RNA; settings: tags: Genentech; biotinylated version used in bead assay; chain copies: 2
# [21] = target: T1, TGFβ1; assay: filter; cell IC50 22 nM; settings: tags: Genentech; biotinylated version used in bead assay; chain copies: 2
# T4 sequence (P01127 82-190, one chain of several): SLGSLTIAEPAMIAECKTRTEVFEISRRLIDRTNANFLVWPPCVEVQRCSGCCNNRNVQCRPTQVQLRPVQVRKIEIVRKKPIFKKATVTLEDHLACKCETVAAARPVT
# T3 sequence (P01127 82-190, chain 2 of 2, other chains not shown): as the sequence (P01127 82-190, one chain of several) above
# T1 sequence (P01137 279-390, one chain of several): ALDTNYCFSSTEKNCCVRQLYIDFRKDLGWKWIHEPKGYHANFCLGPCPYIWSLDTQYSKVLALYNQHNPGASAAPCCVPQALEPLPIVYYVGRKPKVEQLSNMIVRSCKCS
binder,measurement,setting,value
B1,Kd,[1],4.7 nM
B2,Kd,[2],10.7 nM
B3,Kd,[3],30 nM
"CACAGGCTACGGCACGTAGAGCATCACCATGATCCTGTGT (ssDNA, 3'-3' linked T at 3' end) [36t]",Kd,[4],72 nM
same,Kd,[5],0.094 nM
same,Kd,[6],0.093 nM
"CAGTCCGTGGTAGGGCAGGTTGGGGTGACTTCGTGGAAT (ssDNA, 3'-3' linked T at 3' end) [T39]",Kd,[7],230 nM
"TGGGAGGGCGCGTTCTTCGTGGTTACTTTTAGTCCCGT (ssDNA, 3'-3' linked T at 3' end) [20t]",Kd,[8],47 nM
same,Kd,[9],0.127 nM
same,Kd,[5],0.147 nM
B4,Kd,[10],0.173 nM
B5,Kd,[11],2.4 nM
same,IC50,[12],49 nM
B6,Kd,[13],1.3 nM
same,IC50,[12],119 nM
B7,Kd,[14],0.116 nM
"TACTCAGGGCACTGCAAGCAATTGTGGTCCCAATGGGCTGAGTAT (ssDNA, 3'-3' linked T at 3' end) [41t]",Kd,[15],49 nM
same,Kd,[16],0.129 nM
same,Kd,[17],0.138 nM
B8,Kd,[18],14.3 nM
B9,Kd,[19],6.6 nM
B10,Kd,[20],3.1 nM
B11,Kd,[21],0.6 nM
same,IC50,[12],22 nM

# From US20030180744, “High affinity oligonucleotide ligands to growth factors” (GILEAD SCIENCES, INC., published 2003)
